pIC50: −log10 of the molar value.
molecular target: thymidylate synthase (TS) (zebrafish) (UniProt A0ACM8Q3Q5); experiment: competition EMSA; settings: 37 C, 10 min; 100 ng TS (200 ng in Fig. 5B legend), 1 ng 32P TS mRNA; non-denaturing 5% acrylamide gel (60:1); binding buffer, salt and pH not given (cited ref.)
Sequence (A0ACM8Q3Q5 entry or part of it): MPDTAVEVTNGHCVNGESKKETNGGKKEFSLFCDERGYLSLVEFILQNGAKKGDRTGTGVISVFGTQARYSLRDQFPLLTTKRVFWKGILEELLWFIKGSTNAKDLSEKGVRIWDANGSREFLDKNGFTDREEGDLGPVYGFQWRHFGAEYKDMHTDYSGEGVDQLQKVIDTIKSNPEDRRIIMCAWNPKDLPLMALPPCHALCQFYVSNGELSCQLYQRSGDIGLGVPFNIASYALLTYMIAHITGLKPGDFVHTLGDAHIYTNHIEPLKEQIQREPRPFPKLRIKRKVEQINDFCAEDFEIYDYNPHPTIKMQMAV

Substance	pIC50
TS1-36	9.22
TS1-72	9.19
TS1-145	9.28
TS1-290	9.32
TS1-580	9.32
TS37-74 (TS37-72 in Methods)	< 6.00
TS73-145	< 6.00
TS146-290	< 6.00
TS291-580	< 6.00
TS581-1163	< 6.00
full-length TS mRNA (TS1-1163)	9.30

same assay, conditions: vs 32P full-length TS mRNA; 100-fold excess also did not compete (Fig. 3); 37 C, 10 min; 100 ng TS (200 ng in Fig. 5B legend), 1 ng 32P TS mRNA; non-denaturing 5% acrylamide gel (60:1); binding buffer, salt and pH not given (cited ref.)

Substance	pIC50
luciferase mRNA	< 6.00
